Measurements from patent US20240294644A1 (BLUEFIN BIOMEDICINE, published 2024).
Where two headings read alike, the source gives them in different places.

T1: cynomolgus monkey VTCN1 expressed on 293 cells (cynomolgus monkey, UniProt A0A2K5U6P5 25-282)
T1 construct: whole, on cells
T1 sequence: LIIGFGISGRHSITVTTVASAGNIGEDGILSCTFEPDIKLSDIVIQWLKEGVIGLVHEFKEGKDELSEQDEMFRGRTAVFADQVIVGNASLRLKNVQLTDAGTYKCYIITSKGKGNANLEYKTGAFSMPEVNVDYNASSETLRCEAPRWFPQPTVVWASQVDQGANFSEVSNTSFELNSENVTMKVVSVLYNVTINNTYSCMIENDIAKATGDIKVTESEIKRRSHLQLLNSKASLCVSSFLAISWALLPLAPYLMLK

T2: mouse VTCN1 expressed on 293 cells (mouse, UniProt Q7TSP5 25-257)
T2 construct: whole, on cells
T2 sequence (looked up): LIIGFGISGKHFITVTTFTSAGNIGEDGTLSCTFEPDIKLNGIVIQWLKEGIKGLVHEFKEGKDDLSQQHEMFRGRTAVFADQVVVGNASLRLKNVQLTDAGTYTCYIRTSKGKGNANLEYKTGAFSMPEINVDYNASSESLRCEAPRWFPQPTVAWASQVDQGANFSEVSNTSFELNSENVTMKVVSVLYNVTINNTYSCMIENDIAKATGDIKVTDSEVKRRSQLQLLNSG

T3: human VTCN1 expressed on cells (293-VTCN1 cells; SKBR3, MX-1 and ZR-75-1 cells that express it naturally) (human, UniProt Q7Z7D3 25-282)
T3 construct: The cDNA was bought from Origene
T3 sequence: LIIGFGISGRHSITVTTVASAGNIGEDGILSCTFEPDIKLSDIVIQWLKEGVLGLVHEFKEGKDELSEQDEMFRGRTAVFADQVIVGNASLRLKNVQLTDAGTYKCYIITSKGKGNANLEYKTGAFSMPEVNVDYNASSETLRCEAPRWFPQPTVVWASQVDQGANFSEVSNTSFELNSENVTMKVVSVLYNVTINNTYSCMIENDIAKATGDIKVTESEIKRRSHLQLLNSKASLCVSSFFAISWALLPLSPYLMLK

T4: recombinant human VTCN1-his protein (human, UniProt Q7Z7D3 25-259, limits assumed)
T4 construct: also called human VTCN1 protein; recombinant VTCN1
T4 sequence: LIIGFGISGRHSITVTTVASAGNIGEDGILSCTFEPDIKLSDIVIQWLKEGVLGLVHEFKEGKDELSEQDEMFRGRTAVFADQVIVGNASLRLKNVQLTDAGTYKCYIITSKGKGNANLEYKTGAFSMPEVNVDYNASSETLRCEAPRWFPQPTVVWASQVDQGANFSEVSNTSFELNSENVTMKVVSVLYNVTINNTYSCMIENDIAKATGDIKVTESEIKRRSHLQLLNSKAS

T5: cynomolgus monkey VTCN1 protein (cynomolgus monkey, UniProt A0A2K5U6P5 25-259)
T5 construct: The construct and its tag are not described; also called cyno VTCN1
T5 sequence: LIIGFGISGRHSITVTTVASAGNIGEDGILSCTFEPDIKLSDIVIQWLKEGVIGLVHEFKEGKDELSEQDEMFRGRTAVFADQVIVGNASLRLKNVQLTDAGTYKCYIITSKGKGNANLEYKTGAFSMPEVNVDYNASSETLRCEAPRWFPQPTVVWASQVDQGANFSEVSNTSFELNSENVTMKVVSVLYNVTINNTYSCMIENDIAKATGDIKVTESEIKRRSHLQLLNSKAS

T6: mouse VTCN1 protein (mouse, UniProt Q7TSP5 25-257, limits assumed)
T6 construct: The construct and its tag are not described
T6 sequence (looked up): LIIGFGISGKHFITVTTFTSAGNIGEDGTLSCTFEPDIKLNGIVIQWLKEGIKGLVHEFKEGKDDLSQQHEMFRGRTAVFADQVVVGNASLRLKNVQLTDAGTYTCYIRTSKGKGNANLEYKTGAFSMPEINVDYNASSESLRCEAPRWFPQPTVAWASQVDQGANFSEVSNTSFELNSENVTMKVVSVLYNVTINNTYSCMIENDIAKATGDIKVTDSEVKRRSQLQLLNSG

T7: VTCN1 IgC domain only construct expressed on 293 cells (human, UniProt Q7Z7D3 150-259, limits assumed)
T7 construct: The construct lacks the IgV domain
T7 sequence: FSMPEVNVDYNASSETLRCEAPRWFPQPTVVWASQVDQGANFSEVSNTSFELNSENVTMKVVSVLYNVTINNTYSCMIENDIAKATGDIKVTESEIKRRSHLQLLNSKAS

T8: VTCN1 IgV domain only construct expressed on 293 cells (human, UniProt Q7Z7D3 29-149, limits assumed)
T8 construct: The construct lacks the IgC domain
T8 sequence: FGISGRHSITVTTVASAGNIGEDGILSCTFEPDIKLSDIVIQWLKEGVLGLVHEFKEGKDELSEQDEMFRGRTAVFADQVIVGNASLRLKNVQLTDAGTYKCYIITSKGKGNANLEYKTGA


Legend:
[1] = molecular target: T1, cynomolgus monkey VTCN1 expressed on …; assay: flow cytometry of serially diluted antibody on 293-cynoVTCN1 cells, dye-labelled secondary antibody, MFI
[2] = molecular target: T2, mouse VTCN1 expressed on 293 cells; assay: flow cytometry of serially diluted antibody on 293-mouseVTCN1 cells, dye-labelled secondary antibody, MFI
[3] = molecular target: T3, human VTCN1 expressed on cells …; assay: flow cytometry of serially diluted antibody on SKBR3 cells (natural VTCN1), dye-labelled secondary antibody, MFI
[4] = molecular target: T4, recombinant human VTCN1-his protein; assay: BLI (OCTET), human VTCN1 protein
[5] = molecular target: T5, cynomolgus monkey VTCN1 protein; assay: BLI (OCTET), cynomolgus monkey VTCN1 protein
[6] = molecular target: T3, human VTCN1 expressed on cells …; assay: flow cytometry, antibody titration on SKBR3 cells (endogenous VTCN1)
[7] = molecular target: T3, human VTCN1 expressed on cells …; assay: flow cytometry, antibody titration on 293-huVTCN1 cells
[8] = molecular target: T4, recombinant human VTCN1-his protein; assay: BLI (OCTET), human VTCN1 protein; remark: listed apart in the source
[9] = molecular target: T1, cynomolgus monkey VTCN1 expressed on …; assay: flow cytometry, antibody titration on 293-cynoVTCN1 cells
[10] = molecular target: T2, mouse VTCN1 expressed on 293 cells; assay: flow cytometry, antibody titration on 293-muVTCN1 cells
mouse VTCN1 protein = molecular target: T6, mouse VTCN1 protein; assay: BLI (OCTET), mouse VTCN1 protein
[11] = molecular target: T3, human VTCN1 expressed on cells …; assay: flow cytometry and immunofluorescence on cells
[12] = molecular target: T7, VTCN1 IgC domain only construct …; assay: flow cytometry on 293-VTCN1-IgC domain cells
[13] = molecular target: T2, mouse VTCN1 expressed on 293 cells; assay: flow cytometry on 293-VTCN1 (mouse) cells
[14] = molecular target: T8, VTCN1 IgV domain only construct …; assay: flow cytometry on 293-VTCN1-IgV domain cells

Row | Binder | EC50 (read off the curve) [1] [nM] | binding result [2] | EC50 (read off the curve) [3] [nM] | Kd [4] [nM] | Kd [5] [nM] | EC50 [6] [nM] | EC50 [7] [nM] | Kd [8] [nM] | EC50 [9] [nM] | EC50 [10] [nM] | Kd (mouse VTCN1 protein) [nM] | binding result [11] | binding result [12] | binding result [13] | binding result [14]
1 | hu6D9_57A5 (antibody, V domains shown, Humanized 6D9) VH: QVQLVESGGGVVQPGRSLRLSCAVSGFSLTSYGVQWVRQAPGKGLEWLAVIWSSGSTDYNAAFLSRLTISKDNSKNTVYFQMNSLRAEDTAVYYCARDVTTIVEGFAHWGQGTLVTVSS VL: DIQMTQSPSSLSASVGDRVTITCKASEKVGTYVSWYQQKPGKAPKLLIYGASNRYTGVPSRFSGSGSGTDFTLTISSLQPEDFATYYCGQTYSYPFTFGQGTKLEIK | ~2 | binds | ~6 | 36 |  |  |  |  |  |  |  |  |  |  | 
2 | 12B5_44B1 (antibody, V domains shown, Fully human antibody) VH: QVQLVQSGAEVKKPGSSMKVSCKASGDTFSSYAISWVRQAPGQGLEWMAGIIPVFGTAHNAQKFQGRVTITADKSTSTAYMELSSLRSEDTAVYYCTRGGPYFDYWGQGTLVTVSS VL: EIVMTQSPATLSVSPGERAALSCRASQSVSSNLAWYQQKPGQAPRLLIYGVSTRATGIPDRFNGSGSGTEFTLTISSLQSEDFGAYYCQQYKKWPFIFGPGTKLEIK |  |  |  |  | 2 | 35.5 | 9 | 2 | 9 | 28.5 | 38 |  |  |  | 
3 | 14D6_60B5 (antibody, V domains shown, Fully human antibody) VH: QVQLVHSGAEVKRPGSSVKVSCKASGGTFSSYAISWVRQAPGQGLEWMGGIIPIFGIANYAQKFQGRVTIIADKSTRTAYMELSSLRSEDTAVYYCARGGPYFDYWGQGILVTVSS VL: EIVMTQSPATLSVSPGERATLSCRASQSVSSNLAWYQQKPGQAPRLLIYGASTRATGIPARFSGSGSGTEFTLTISSLQSEDFAVYYCQQYNKWPFTFGPGTKVDIK |  |  |  |  | 5 | 51.4 | 4.6 | 5 | 5.1 | 11.4 | 56 |  |  |  | 
4 | 7C8 (antibody, V domains shown, Fully human antibody; also called VTCN1 antibody 7C8) VH: QVQLQESGPGLVKPSETLSLTCAVSGYSISSGYYWGWIRQPPGKGLEWIGSIYHSGTTYYNPSLKSRVTISVDTSKNQFSLKLNSVTAADTAVYYCATYSSGWYFYFDYWGQGTLVTVSS VL: DIQLTQSPSFLSASVGDRVTITCRASQGISSYLAWYQQKPGKAPKLLIYVASTLQSGVPSRFSGSGSGTEFTLTISSLQPEDFATYYCQQLNSYPITFGQGTRLEIK |  |  |  |  |  |  |  |  |  |  |  | binds | no binding | binds | no binding

More lines, now with the values ahead:

Row | EC50 (read off the curve) [1] [nM] | binding result [2] | EC50 (read off the curve) [3] [nM] | Kd [4] [nM] | Kd [5] [nM] | EC50 [6] [nM] | EC50 [7] [nM] | Kd [8] [nM] | EC50 [9] [nM] | EC50 [10] [nM] | Kd (mouse VTCN1 protein) [nM] | binding result [11] | binding result [12] | binding result [13] | binding result [14] | Binder
5 |  |  |  |  | 1 | 4 | 1.7 | 0.7 | 2.1 | 4.8 | 27 |  |  |  |  | 16H12_60B4 (antibody, V domains shown, Fully human antibody) VH: QVQVVQSGAEVKKPGSSVKVSCKASGDTFSNYAISWVRQAPGQGLEWMGGIIPIFGITNYAQKFQGRVTIIADKSTRTAYMELSSLRSEDTAVYYCSRGGPYFDYWGQGILVTVSS VL: EIVMTQSPATLSVSPGERATLSCRASQSVSSNLAWYQQKPGQAPRLLIYGASTRATGIPARFSGSGSGTEFTLTISSLQSEDFAVYYCQQYKKWPFTFGPGTKVDIK
6 |  |  |  |  | 47 | 4.4 | 2.1 | 49 | 1.7 | 3.5 | 44 |  |  |  |  | 4C7_63A1 (antibody, V domains shown, Fully human antibody) VH: QVQLQESGPGLVKPSGTLSLTCAVSGGSISSSNWWSWVRQPPGKGLEAIGEIYHSGNTNYNPSLKSRVTISVDKSKNQFSLKLSSVTAADTAIYYCARDGYSSGWYWGYFDYWGQGTLVTVSS VL: EIVMTQSPATLSVSPGERATLSCRASQSVNSNLAWYQQKPGQAPWLLIYGASTRATGIPARFSGSGSGTEFTLTISSLQSEDFAVYYCQQYNHWPYTFGQGTKLEIK
